Measurements taken from patent US20200172619A1 (UNIVERSIT T STUTTGART, published 2020).
Read-outs that look alike come from different tables or passages of the source.

Key:
[1] = biological target: MCSP (melanoma-associated chondroitin sulfate proteoglycan) on WM35 cells (human, UniProt Q6UVK1 30-2322); test: cell-based or functional assay
Her3-Fc fusion protein = biological target: T1, Her3-Fc fusion protein (human, UniProt P21860 20-643); test: ELISA, immobilized Her3-Fc fusion protein
T1 construct: also called immobilized Her3-Fc fusion protein; not shown: Fc part not described

[2] = biological target: T2, TNFR1 on the surface of cells (HT1080, HeLa, Kym-1) (human, UniProt P19438 30-455); test: cell-based or functional assay
T2 sequence (looked up): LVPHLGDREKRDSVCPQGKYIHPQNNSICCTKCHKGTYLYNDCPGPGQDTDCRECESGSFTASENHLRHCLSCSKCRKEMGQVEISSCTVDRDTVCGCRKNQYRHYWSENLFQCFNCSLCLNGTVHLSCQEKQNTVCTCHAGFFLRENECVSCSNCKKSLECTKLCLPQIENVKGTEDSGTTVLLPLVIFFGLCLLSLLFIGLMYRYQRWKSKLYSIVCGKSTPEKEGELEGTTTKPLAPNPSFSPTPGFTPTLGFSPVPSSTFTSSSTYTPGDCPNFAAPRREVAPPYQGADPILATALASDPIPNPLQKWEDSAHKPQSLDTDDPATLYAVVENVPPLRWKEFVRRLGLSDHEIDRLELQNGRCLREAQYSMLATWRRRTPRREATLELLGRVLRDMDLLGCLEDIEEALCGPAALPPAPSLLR

[3] = biological target: T2, TNFR1 on the surface of cells (HT1080, …); test: cell-based or functional assay; remark: listed apart in the source
[4] = biological target: T2, TNFR1 on the surface of cells (HT1080, …); test: cell-based or functional assay; remark: listed apart in the source
[5] = biological target: T3, human TNFR1-Fc fusion protein (human, UniProt P19438 30-211); test: ELISA, immobilized human TNFR1-Fc
T3 construct: Provided by Baliopharm AG; Coated at 1 ug/ml in the ELISA; also called huTNFR1-Fc; immobilized human TNFR1; not shown: Fc part not described
T3 sequence (looked up): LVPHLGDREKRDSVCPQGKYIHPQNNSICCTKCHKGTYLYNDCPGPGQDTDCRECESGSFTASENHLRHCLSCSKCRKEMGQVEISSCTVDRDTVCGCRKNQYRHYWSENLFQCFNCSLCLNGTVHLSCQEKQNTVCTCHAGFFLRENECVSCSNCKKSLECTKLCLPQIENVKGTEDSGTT

[6] = biological target: T2, TNFR1 on the surface of cells (HT1080, …); test: cell-based or functional assay; remark: listed apart in the source
[7] = biological target: T3, human TNFR1-Fc fusion protein; test: ELISA, human TNFR1-Fc
Description: (§1) Microtiter plates were coated with 100 μl of TNFFR1-Fc fusion protein (1 μg/ml in PBS) and incubated at 4° C. overnight. The residual binding sites were blocked with 2% MPBS (skim milk in PBS, 200 μl per well) at room temperature for 2 hours and subsequently washed twice with PBS. 100 μl of the samples diluted in 2% MPBS were incubated at room temperature for 1 hour prior to the last incubation step with 100 μl of the HRP conjugated detection antibodies in 2% MPBS. Bound protein was detected with 100 μl TMB substrate solution, the HRP-reaction was stopped by the addition of 50 μl 1 M H2SO4 and the absorption at the wavelength of 450 nm was measured using the Infinite microtiter plate reader (TECAN, Maennedorf, Switzerland). Between each incubation step and in advance of the detection, the plates were washed three times with PBST and twice with PBS.

[8] = biological target: T3, human TNFR1-Fc fusion protein; test: ELISA, immobilized human TNFR1-Fc; remark: listed apart in the source
Description: Microtiter plates were coated with 100 μl of TNFFR1-Fc fusion protein (1 μg/ml in PBS) and incubated at 4° C. overnight.

[9] = biological target: T3, human TNFR1-Fc fusion protein; test: ELISA, immobilized human TNFR1-Fc; remark: listed apart in the source
Description: as §1

Chain of MCSP (melanoma-associated chondroitin sulfate proteoglycan) on WM35 cells (Q6UVK1 30-2322): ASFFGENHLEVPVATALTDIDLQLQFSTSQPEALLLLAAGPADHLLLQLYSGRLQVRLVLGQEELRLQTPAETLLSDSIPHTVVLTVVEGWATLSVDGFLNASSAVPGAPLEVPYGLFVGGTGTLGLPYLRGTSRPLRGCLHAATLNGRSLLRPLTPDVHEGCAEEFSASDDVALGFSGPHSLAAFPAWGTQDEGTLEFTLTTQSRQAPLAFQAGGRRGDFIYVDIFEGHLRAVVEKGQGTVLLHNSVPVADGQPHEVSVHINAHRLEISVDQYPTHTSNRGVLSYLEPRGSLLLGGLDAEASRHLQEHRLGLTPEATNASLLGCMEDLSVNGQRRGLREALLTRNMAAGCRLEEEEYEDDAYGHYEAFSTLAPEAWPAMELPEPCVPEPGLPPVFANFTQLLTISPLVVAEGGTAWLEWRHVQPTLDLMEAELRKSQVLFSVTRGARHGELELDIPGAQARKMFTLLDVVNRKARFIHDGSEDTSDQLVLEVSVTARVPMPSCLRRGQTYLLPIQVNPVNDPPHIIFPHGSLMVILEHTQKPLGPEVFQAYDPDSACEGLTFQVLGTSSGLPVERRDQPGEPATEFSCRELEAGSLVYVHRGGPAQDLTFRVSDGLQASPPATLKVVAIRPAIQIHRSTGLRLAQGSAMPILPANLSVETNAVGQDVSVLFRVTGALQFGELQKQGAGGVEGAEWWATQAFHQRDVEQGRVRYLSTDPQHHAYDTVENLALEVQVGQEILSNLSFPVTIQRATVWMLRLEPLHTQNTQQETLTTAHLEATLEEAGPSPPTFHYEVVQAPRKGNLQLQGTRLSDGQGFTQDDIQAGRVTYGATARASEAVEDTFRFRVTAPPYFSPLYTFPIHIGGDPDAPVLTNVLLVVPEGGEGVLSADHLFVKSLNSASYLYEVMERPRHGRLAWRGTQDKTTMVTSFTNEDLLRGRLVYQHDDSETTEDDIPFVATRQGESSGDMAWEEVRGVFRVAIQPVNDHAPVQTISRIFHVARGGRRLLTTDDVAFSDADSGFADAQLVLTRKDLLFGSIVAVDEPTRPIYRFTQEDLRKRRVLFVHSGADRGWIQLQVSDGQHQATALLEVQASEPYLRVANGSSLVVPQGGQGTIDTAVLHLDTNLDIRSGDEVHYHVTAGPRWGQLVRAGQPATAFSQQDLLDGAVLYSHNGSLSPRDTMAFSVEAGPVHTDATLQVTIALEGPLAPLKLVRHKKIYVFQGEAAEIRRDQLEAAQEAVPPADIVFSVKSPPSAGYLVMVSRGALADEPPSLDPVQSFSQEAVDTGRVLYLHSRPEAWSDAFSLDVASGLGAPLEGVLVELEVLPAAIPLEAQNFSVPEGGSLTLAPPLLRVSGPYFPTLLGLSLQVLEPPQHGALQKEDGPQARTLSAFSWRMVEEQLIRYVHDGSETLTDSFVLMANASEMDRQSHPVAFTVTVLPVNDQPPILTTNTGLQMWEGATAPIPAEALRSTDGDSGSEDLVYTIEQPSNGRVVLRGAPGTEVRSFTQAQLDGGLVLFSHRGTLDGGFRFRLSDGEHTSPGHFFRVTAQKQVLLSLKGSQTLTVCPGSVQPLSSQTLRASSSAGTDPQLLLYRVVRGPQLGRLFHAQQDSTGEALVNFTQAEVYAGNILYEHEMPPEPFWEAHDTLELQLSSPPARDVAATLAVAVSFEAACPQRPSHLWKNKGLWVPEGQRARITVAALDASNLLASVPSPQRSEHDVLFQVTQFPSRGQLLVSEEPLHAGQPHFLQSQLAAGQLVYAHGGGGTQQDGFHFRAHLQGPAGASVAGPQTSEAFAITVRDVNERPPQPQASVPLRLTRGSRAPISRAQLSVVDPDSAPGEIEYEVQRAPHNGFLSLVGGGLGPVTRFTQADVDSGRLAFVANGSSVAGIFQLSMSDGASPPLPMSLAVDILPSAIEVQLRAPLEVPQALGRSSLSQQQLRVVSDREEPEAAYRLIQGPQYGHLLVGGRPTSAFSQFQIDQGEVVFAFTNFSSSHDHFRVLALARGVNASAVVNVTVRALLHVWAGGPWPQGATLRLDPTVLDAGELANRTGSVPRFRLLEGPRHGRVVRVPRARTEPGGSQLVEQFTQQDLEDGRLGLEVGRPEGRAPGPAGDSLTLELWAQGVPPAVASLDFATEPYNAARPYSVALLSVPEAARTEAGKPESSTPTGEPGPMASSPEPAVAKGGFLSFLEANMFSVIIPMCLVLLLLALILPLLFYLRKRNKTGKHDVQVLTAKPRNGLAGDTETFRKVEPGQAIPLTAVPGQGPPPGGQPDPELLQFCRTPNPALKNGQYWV

B1: MCSPN-CD3N-hFc1k (bispecific antibody)
chain 1: QVQLVQSGAEVKKPGASVKVSCKASGYTFTRSWMNWVRQAPGQGLEWMGRIYPGDGDTNYNGKFKGRVTMTRDTSTSTVYMELSSLRSEDTAVYYCARGNTVVVPYTMDYWGQGTTVTVSSGGGGSGGGGSGGGGSDIQMTQSPSSLSASVGDRVTITCRASESVDSYGNSFMHWYQQKPGKAPKLLIYLASNLESGVPSRFSGSGSGTDFTLTISSLQPEDFATYYCQQNNEDPLTFGGGTKVEIKRAAADKTHTCPPCPAPPVAGPSVFLFPPKPKDTLMISRTPEVTCVVVDVSHEDPEVKFNWYVDGVEVHNAKTKPREEQYNSTYRVVSVLTVLHQDWLNGKEYKCKVSNKGLPSSIEKTISKAKGQPREPSVFPLAPSSKSTSGGTAALGCLVKDYFPSDIAVEWESGALTSGVHTFPAVLQSSGLYSLSSVVTVPSSSLGTQTYSCSVMHEALHNHYTQKSVEPKSC
chain 2: DIQMTQSPSSLSASVGDRVTITCRASQDIRNYLNWYQQKPGKAPKLLIYYTSRLHSGVPSRFSGSGSGTDFTFTISSLQPEDIATYYCQQGNTLPWTFGQGTKLEIKRGGGGSGGGGSGGGGSQVQLVQSGAEVKKPGSSVKVSCKASGGTFSGYTMNWVRQAPGQGLEWMGLINPYKGVSTYNGKFKDRVTITADKSTSTAYMELSSLRSEDTAVYYCARSGYYGDSDWYFDVWGQGTLVTVSSSGGGSGGGGSDKTHTCPPCPAPPVAGPSVFLFPPKPKDTLMISRTPEVTCVVVDVSHEDPEVKFNWYVDGVEVHNAKTKPREEQYNSTYRVVSVLTVLHQDWLNGKEYKCKVSNKGLPSSIEKTISKAKGQPREPSVFIFPPSDEQLKSGTASVVCLVNNFYPRDIAVEWEVDNALQSGNSQESVTEQDSKDSTYSLSSTLTLSKADYEKHKVYSCSVMHEALHNHYTQKSFNRGECGGGGSGGGGSGGGGSGTGGSGG
Cytotxicity IC50 [1]: 0.2 nM

B2: Her3N-CD3N-hFc1k (bispecific antibody)
chain 1: QVQLQQSGPGLVKPSQTLSLTCAISGDSVSSNRAAWNWIRQSPSRGLEWLGRTYYRSKWYNDYAQSLKSRITINPDTPKNQFSLQLNSVTPEDTAVYYCARDGQLGLDALDIWGQGTMVTVSSGGGGSGGGGSGGGGSQAGLTQPPAVSVAPGQTASITCGRDNIGSRSVHWYQQKPGQAPVLVVYDDSDRPAGIPERFSGSNYENTATLTISRVEAGDEADYYCQVWGITSDHVVFGGGTKLTVLAAADKTHTCPPCPAPPVAGPSVFLFPPKPKDTLMISRTPEVTCVVVDVSHEDPEVKFNWYVDGVEVHNAKTKPREEQYNSTYRVVSVLTVLHQDWLNGKEYKCKVSNKGLPSSIEKTISKAKGQPREPSVFPLAPSSKSTSGGTAALGCLVKDYFPSDIAVEWESGALTSGVHTFPAVLQSSGLYSLSSVVTVPSSSLGTQTYSCSVMHEALHNHYTQKSVEPKSC
chain 2: DIQMTQSPSSLSASVGDRVTITCRASQDIRNYLNWYQQKPGKAPKLLIYYTSRLHSGVPSRFSGSGSGTDFTFTISSLQPEDIATYYCQQGNTLPWTFGQGTKLEIKRGGGGSGGGGSGGGGSQVQLVQSGAEVKKPGSSVKVSCKASGGTFSGYTMNWVRQAPGQGLEWMGLINPYKGVSTYNGKFKDRVTITADKSTSTAYMELSSLRSEDTAVYYCARSGYYGDSDWYFDVWGQGTLVTVSSSGGGSGGGGSDKTHTCPPCPAPPVAGPSVFLFPPKPKDTLMISRTPEVTCVVVDVSHEDPEVKFNWYVDGVEVHNAKTKPREEQYNSTYRVVSVLTVLHQDWLNGKEYKCKVSNKGLPSSIEKTISKAKGQPREPSVFIFPPSDEQLKSGTASVVCLVNNFYPRDIAVEWEVDNALQSGNSQESVTEQDSKDSTYSLSSTLTLSKADYEKHKVYSCSVMHEALHNHYTQKSFNRGECGGGGSGGGGSGGGGSGTGGSGG
notes: also called scFv3-43-CD3-Hinge-Fc1k
EC50 (Her3-Fc fusion protein): 1 nM

B3: Her3N-CD3C-hFc1k (bispecific antibody)
chain 1: QVQLQQSGPGLVKPSQTLSLTCAISGDSVSSNRAAWNWIRQSPSRGLEWLGRTYYRSKWYNDYAQSLKSRITINPDTPKNQFSLQLNSVTPEDTAVYYCARDGQLGLDALDIWGQGTMVTVSSGGGGSGGGGSGGGGSQAGLTQPPAVSVAPGQTASITCGRDNIGSRSVHWYQQKPGQAPVLVVYDDSDRPAGIPERFSGSNYENTATLTISRVEAGDEADYYCQVWGITSDHVVFGGGTKLTVLAAADKTHTCPPCPAPPVAGPSVFLFPPKPKDTLMISRTPEVTCVVVDVSHEDPEVKFNWYVDGVEVHNAKTKPREEQYNSTYRVVSVLTVLHQDWLNGKEYKCKVSNKGLPSSIEKTISKAKGQPREPSVFPLAPSSKSTSGGTAALGCLVKDYFPSDIAVEWESGALTSGVHTFPAVLQSSGLYSLSSVVTVPSSSLGTQTYSCSVMHEALHNHYTQKSVEPKSC
chain 2: DKTHTCPPCPAPPVAGPSVFLFPPKPKDTLMISRTPEVTCVVVDVSHEDPEVKFNWYVDGVEVHNAKTKPREEQYNSTYRVVSVLTVLHQDWLNGKEYKCKVSNKGLPSSIEKTISKAKGQPREPSVFIFPPSDEQLKSGTASVVCLVNNFYPRDIAVEWEVDNALQSGNSQESVTEQDSKDSTYSLSSTLTLSKADYEKHKVYSCSVMHEALHNHYTQKSFNRGECGGGGSGGGGSGGGGSGTDIQMTQSPSSLSASVGDRVTITCRASQDIRNYLNWYQQKPGKAPKLLIYYTSRLHSGVPSRFSGSGSGTDFTFTISSLQPEDIATYYCQQGNTLPWTFGQGTKLEIKRGGGGSGGGGSGGGGSQVQLVQSGAEVKKPGSSVKVSCKASGGTFSGYTMNWVRQAPGQGLEWMGLINPYKGVSTYNGKFKDRVTITADKSTSTAYMELSSLRSEDTAVYYCARSGYYGDSDWYFDVWGQGTLVTVSS
EC50 (Her3-Fc fusion protein): 0.1 nM

B4: Fab13.7 (Fab, V domains shown)
VH: HVQLVQSGAEVKKPGSSVKVSCKASGYTFTDFYINWVRQAPGQGLEWIGEIVPSQGEAKYNDKFKARVTITADKSTSTAYMELSSLRSEDTAVYYCARWDFLDYWGQGTTVTVSS
VL: DVQMTQSPSSLSASVGDRVTITCRSSQSLLHSNGNTYLHWYQQKPGKAPKLLIYTVSNRFSGVPSRFSGSGSGTDFTLTISSLQPEDFATYYCSQSTHVPYTFGGGTKVEIK
notes: Monovalent anti-human TNFR1 control Fab; Its variable domains are those used in Fv13.7-Fc1k and Fv13.7x-Fc1k
IC50, IL-6 release (HeLa cells) [2]: 31.7 nM | IL-8 Inhibition IC50 [3]: 26.3 nM | IL-8 Inhibition IC50 [4]: 13 nM | EC50 [5]: 0.9 nM | IC50, Cell death induction [nM] (Kym-1 cells, 0.01 nM TNF) [6]: 9.5 nM | IC50, IL-6 [nM] (HeLa cells, 0.1 nM TNF) [6]: 37.1 nM | IC50, IL-8 [nM] (HT1080 cells, 0.1 nM TNF) [6]: 12.7 nM | EC50 [7]: 0.17 nM | EC50 [8]: 0.61 nM

B5: Fv13.7-Fc1k (Fc fusion)
chain 1: HVQLVQSGAEVKKPGSSVKVSCKASGYTFTDFYINWVRQAPGQGLEWIGEIVPSQGEAKYNDKFKARVTITADKSTSTAYMELSSLRSEDTAVYYCARWDFLDYWGQGTTVTVSSGTGGGSGPSVFLFPPKPKDTLMISRTPEVTCVVVDVSHEDPEVKFNWYVDGVEVHNAKTKPREEQYNSTYRVVSVLTVLHQDWLNGKEYKCKVSNKGLPSSIEKTISKAKGQPREPSVFPLAPSSKSTSGGTAALGCLVKDYFPSDIAVEWESGALTSGVHTFPAVLQSSGLYSLSSVVTVPSSSLGTQTYSCSVMHEALHNHYTQKSVEPKSC
chain 2: DVQMTQSPSSLSASVGDRVTITCRSSQSLLHSNGNTYLHWYQQKPGKAPKLLIYTVSNRFSGVPSRFSGSGSGTDFTLTISSLQPEDFATYYCSQSTHVPYTFGGGTKVEIKGTGGGSGPSVFLFPPKPKDTLMISRTPEVTCVVVDVSHEDPEVKFNWYVDGVEVHNAKTKPREEQYNSTYRVVSVLTVLHQDWLNGKEYKCKVSNKGLPSSIEKTISKAKGQPREPSVFIFPPSDEQLKSGTASVVCLVNNFYPRDIAVEWEVDNALQSGNSQESVTEQDSKDSTYSLSSTLTLSKADYEKHKVYSCSVMHEALHNHYTQKSFNRGEC
factor of increased inhibitory potential (IL-8 inhibition) compared to ATROSAB [2]: 2.5 fold | fold reduced bioactivity (IL-8 inhibition) compared to Fab13.7 [2]: 1.5 fold | IL-8 Inhibition IC50 [3]: 39.7 nM | fold reduced binding affinity compared with Fab13.7 [9]: 1.9 fold | EC50 [8]: 1.18 nM
